Common to all, as to details: both partners purified
The target in experiment [1] is T1, Human wild-type copper chaperone for Sod1 (Ccs), His8-tag removed (human, UniProt O14618 1-274).
T1 construct: Human wild-type Ccs1, UniProtKB O14618, cloned into pAG8H; Stripped of metals (apo) or Cu(I)-loaded as the experiment says; the methods tell its removal in general; also called Ccs1; WT Ccs; not shown: His8, N-terminal, cleaved
T1 sequence (looked up): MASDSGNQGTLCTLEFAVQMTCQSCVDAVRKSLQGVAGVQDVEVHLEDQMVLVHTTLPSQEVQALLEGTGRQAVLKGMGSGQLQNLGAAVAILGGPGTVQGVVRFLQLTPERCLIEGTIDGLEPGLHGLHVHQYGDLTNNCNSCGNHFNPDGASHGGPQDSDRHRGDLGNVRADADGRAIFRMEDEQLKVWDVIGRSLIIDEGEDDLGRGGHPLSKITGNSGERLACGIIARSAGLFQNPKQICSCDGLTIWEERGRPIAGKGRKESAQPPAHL
Kind of experiment: other fluorescence titration; HI-FI method, fluorescence quenching; 10 nM Alexa-546 Sod1 probe, Zn-bound; apo-Ccs titrated in increasing concentrations; fit in GraphPad Prism.

Experiment [2] has as its target T1, Human wild-type copper chaperone for …. Kind of experiment: other fluorescence titration; HI-FI method, fluorescence quenching; 10 nM Alexa-546 Sod1 probe, completely immature (metal-free); Ccs titrated in increasing concentrations; fit in GraphPad Prism.
For experiment [3], the target named is T2, Pre-made Cu(I)-Ctr1c·Ccs complex (human, UniProt O14618 1-274).
T2 construct: Human wild-type Ccs1, UniProtKB O14618; as m2; C-terminal 13 amino acids of the human Ctr1 Cu(I)-transporter (Ctr1c), UniProtKB O15431; Held together through Cu(I); also called Cu(I)-Ctr1c complexed Ccs; Cu(I)-Ctr1c488·Ccs; source: formed from purified E. coli Ccs and the Cu(I)-loaded synthetic peptide; not shown: His8, N-terminal, cleaved
The description is as above.

Kd data for 1 molecule are collected here from publication PMC6647829, “Copper–zinc superoxide dismutase (Sod1) activation terminates interaction between its copper chaperone (Ccs) and the cytosolic metal-binding domain of the copper importer Ctr1” (Biometals, 2019).

As a reminder, the Kd is a measure of binding affinity in units of concentration. Low readings indicate tighter binding, high ones weaker binding.

B1: H46R/H48Q/C146S Sod1 labelled with Alexa-546-C-maleimide (Sod1 probe) (enzyme)
chain: not shown
modifications: Alexa-546-C-maleimide label (residue not stated)
notes: Human Sod1, UniProtKB P00441, H46R/H48Q/C146S; the two states are told apart by the assay; also called completely immature Sod1; source: gel filtration after labelling
B1: the Kd in experiment [1] amounted to 22 ± 6 nM; in experiment [2] it was 89 ± 11 nM; in experiment [3] it was 120 ± 27 nM.
